According to the nanobody polyreactivity screen of Harvey et al. (2022):

test: yeast display, Sf9 membrane polyspecificity reagent, FACS + sequencing; frameworks hold sequencing errors
Method in brief: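 Using colony PCR, genes from sorted yeast display clones were amplified, then sequenced on MiSeq at 2 × 250 and filtered by CDR length. The clones had been stained with 10% biotinylated, detergent-solubilized Sf9 membrane reagent for 1 hour at 4 °C and sorted by FACS into low and high (top ~1%) gates on anti-HA and streptavidin fluorescence. Polyreactivity labels come from the gate of origin.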

Sequence	polyreactivity (PSR sort gate)
QFQLVESGGGLVQAGGSLLLSCAASGRTFDWYAMGWYRLAPGKERELVAGISGSSGRTYYADSVKGRFTISRDNAKNTVYLQMNSLKPEDTAVYYCAADFSFWKLVYYQSGRYDYWGQGTQVTVSS	high polyreactivity
QFQLVESGGGLVQAGGSLRLICAASGFIFRTYAMGWYRQAPGKAREFVAAITFSAGSTYYADSVKGRFTISRDNAKNTVYLQMNSLLPEDSAVYDCNVLKSWYGYSVTGRYVYWGQGTQVTVSS	low polyreactivity
QFQLVESGGGLVQAGGSLRLRCAPSGNTLIVKAMGWYRQAPGKEMELVAAITRDGRTNYADSVKGRFTISRDNAKNTVYLQMNSLKPEDTAVYYCAAEGVPDALDRDYWGQGTQVTVSS	low polyreactivity
QFQLVESGGGLVQAGGSLRLSCAASGCTLQRNNRGWYRQAPGKDSEFVARISRRACSTYYADSVKGRITISRDNAKNTVYLQMNSLKPEDTAVYYCSTEDRGLTTRYPYDYWGQGTQVTVSS	high polyreactivity
QFQLVESGGGLVQAGGSLRLSCAASGFIFGLYAMGWYRQAPGKERELVAAISRSGGSTYYADSVKGRFTISRDNAKNTVYLQMNSLKPEDTAVYYCNARYSWPRANWYDYWGQGTQVTVSS	high polyreactivity
QFQLVESGGGLVQAGGSLRLSCAASGFIFKRYTMGWYRQAPGKERELVAAISFSGGSTYYADSVKGRFTISRDNAKNTVYLQMNSLKPEDTAVYYCAKVYRVVPATQKEYGYWGQGTQVTVSS	high polyreactivity
QFQLVESGGGLVQAGGSLRLSCAASGFIFKSNAMGWYRQAPGKERELVAAITKRGGSTYYADSVKGRFTISGDYAKNTVYLQMNSLKPEDTAVYYCAVRKPYSRYTVNYDSWGQGTQVTVSS	high polyreactivity
QFQLVESGGGLVQAGGSLRLSCAASGFIFPLYTMGWYRQAPGKETELVAAIDGGGTTYADSVKGRFTISRDNAKNTVYLQMNSLKPEDTAVYYCAADWYYQYSIYRYGYWGQGTQVTVSS	low polyreactivity
QFQLVESGGGLVQAGGSLRLSCAASGFIFQRYAMGWYRQAPGKERELVAAINFSGGSTYYADSVKGRFTISRDNAKNTVYLQMNSLKPEDTAVYYCNTGNITQTKSIFDYWGQGSQVTVSS	high polyreactivity
QFQLVESGGGLVQAGGSLRLSCAASGFIFTNYAMGWYRQAPGKEWELVAAINRSGGRTYYADSVKGRFTISRDNAKNTVYLQMNSLKPEDNAVYYCAAKGVSYRPAYDYWGQGTQVTVSS	high polyreactivity
QFQLVESGGGLVQAGGSLRLSCAASGFNFGWYDMGWYRQAPGKERELVASISWSGSSTYYADSVKGRFTISRDNAKNTVYLQMNSLKPEDTAVYYCATPYWRRYDYWGQGTQVTVSS	high polyreactivity
QFQLVESGGGLVQAGGSLRLSCAASGFTFSGYAMGWYRQAPGKERELVAAINWRGDSTYYADSVKGRFTISRDNAKNTVYLHMNSLKPEDTAVYYCYVVLGPQRYSTDYGYWGQGTQVTVSS	high polyreactivity
QFQLVESGGGLVQAGGSLRLSCAASGFTFTVYAMGWYRQAPGKERELVAAITRGTSTYADSVKGRFTISRDNAKNTVYLQMNSLKPEDTAVYYCAARSSPWYTRYRSSELFDYWGQGTQVTVSS	high polyreactivity
QFQLVESGGGLVQAGGSLRLSCAASGFTIGPYTMAWYRQAPGKERELVAAISYSGASTYYADSVKGRFTISRDNAKNTVYLQMNSLKPEDTAVYYCNTVYRFTRARYPYDYWGQGTQVTVSS	high polyreactivity
QFQLVESGGGLVQAGGSLRLSCAASGFTSYRNALGWYRQAPGKERELVAAISRGDSTYYADSVKGRFTISRDNAKNTVYLQMNSLKAEDTAVYYCATPPTVYGWLAGYDYWGQGTQVTVSS	low polyreactivity
QFQLVESGGGLVQAGGSLRLSCAASGIIFYENNMGWYRQAPGKERELVAAINSGGSTYYADSVKGRFTISRDNAKNTVYLQMNSLKPEDTAVYYCDADDYSGLYYSSTYRYEYWGQGTQVTVSS	low polyreactivity
QFQLVESGGGLVQAGGSLRLSCAASGINFSSYVMGWYRQAPGKERELVAAISKSGARTSYADSVKGRFSISRDNAKNTVYLQMNSLKPEDTAVYYCNAYTESWYPIYFFGWSYTAVDYWGQGTQVTVSS	low polyreactivity
QFQLVESGGGLVQAGGSLRLSCAASGITFYRYAMGWYRQAPGKERELVASISSRGSSTYYADSVKGRFTISRDNAKNTVYLQMNSLKPEDTAVYYCAKSRGSRGFVASTYNYWGQGTQVTVSS	high polyreactivity
QFQLVESGGGLVQAGGSLRLSCAASGLIFYFYAMGWYRQAPGKEREFVAAISSGGDTYYADSVKGRFTISRDNAKNTVYLQMNSLKPEDNAVYYCAARRYRRGRSDYWGQGTQVTVSS	high polyreactivity
QFQLVESGGGLVQAGGSLRLSCAASGRIFARNTMGWYRQAAGKERELVAAITYSGGNTYYADSVKGRFTISRDNAKNTVYLQMNSLKPEDTAVYDCNKASFGRLRKKIMDYWGQGTQVTVSS	high polyreactivity
QFQLVESGGGLVQAGGSLRLSCAASGRIFCSYAMGWYIQAPGKERELVAAITSGGSTNYADSVKARFTISRDNAKNTVYLLMNSLKQEDTAVYYCADVEYLRESDYWGQGTQVTVSS	low polyreactivity
